Starred links: 1 amine or outer side, 2 acyl side, 3 side chain; linkers in the order of their positions; H or OH if unused. Non-standard residues stand in square brackets, D forms with d. Groups on a side chain read outwards from the residue. No end group written: not given here. *: point of attachment. C18 diacid = O=C(O)CCCCCCCCCCCCCCCCC(=O)*; C17 diacid = O=C(O)CCCCCCCCCCCCCCCC(=O)*; γGlu = O=C(O)[C@H](CCC(=O)[*:2])N[*:1]; NMeY = CN[C@@H](Cc1ccc(O)cc1)C(=O)O; AEEA = NCCOCCOCC(=O)O; E1 = not defined here; K1 = not defined here; Aib = CC(C)(N)C(=O)O
T1: full-length human GIPR with an N-terminal FLAG tag (human, UniProt P48546 22-466)
T1 sequence (looked up): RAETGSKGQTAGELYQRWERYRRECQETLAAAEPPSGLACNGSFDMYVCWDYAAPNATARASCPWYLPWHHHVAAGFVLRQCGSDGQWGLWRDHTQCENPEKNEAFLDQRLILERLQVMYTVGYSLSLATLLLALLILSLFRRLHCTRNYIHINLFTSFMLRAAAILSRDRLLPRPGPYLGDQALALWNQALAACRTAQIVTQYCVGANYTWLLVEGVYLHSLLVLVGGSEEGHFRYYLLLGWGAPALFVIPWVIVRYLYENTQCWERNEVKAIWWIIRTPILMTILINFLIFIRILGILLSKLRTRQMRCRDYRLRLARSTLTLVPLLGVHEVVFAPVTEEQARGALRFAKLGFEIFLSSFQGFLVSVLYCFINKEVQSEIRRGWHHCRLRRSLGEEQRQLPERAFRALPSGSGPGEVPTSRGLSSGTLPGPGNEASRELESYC

B1: Compound No. 124 (peptide)
peptide: YXEGTFISDYSIAXDRXAQKDFVEWLLAQSPG
modifications: N-methyl Tyr 1; Aib at 2,17; Lys(G5-C18 diacid) at 14; 'K1' at 20 and 'E1' at 24 as printed; C-terminal OH
B2: Compound No. 125 (peptide)
peptide: [NMeY][Aib]EGTFISDYSIALDR[Aib]AQ[Aib]K([AEEA-AEEA-γGlu-γGlu-C17 diacid])FVNWLLAQSPG-OH
modifications: N-terminus assumed
SMILES: CC[C@H](C)[C@H](NC(=O)[C@H](CO)NC(=O)[C@H](Cc1ccc(O)cc1)NC(=O)[C@H](CC(=O)O)NC(=O)[C@H](CO)NC(=O)[C@@H](NC(=O)[C@H](Cc1ccccc1)NC(=O)[C@@H](NC(=O)CNC(=O)[C@H](CCC(=O)O)NC(=O)C(C)(C)NC(=O)[C@H](Cc1ccc(O)cc1)NC)[C@@H](C)O)[C@@H](C)CC)C(=O)N[C@@H](C)C(=O)N[C@@H](CC(C)C)C(=O)N[C@@H](CC(=O)O)C(=O)N[C@@H](CCCNC(=N)N)C(=O)NC(C)(C)C(=O)N[C@@H](C)C(=O)N[C@@H](CCC(N)=O)C(=O)NC(C)(C)C(=O)N[C@@H](CCCCNC(=O)COCCOCCNC(=O)COCCOCCNC(=O)CC[C@H](NC(=O)CC[C@H](NC(=O)CCCCCCCCCCCCCCCC(=O)O)C(=O)O)C(=O)O)C(=O)N[C@@H](Cc1ccccc1)C(=O)N[C@H](C(=O)N[C@@H](CC(N)=O)C(=O)N[C@@H](Cc1c[nH]c2ccccc12)C(=O)N[C@@H](CC(C)C)C(=O)N[C@@H](CC(C)C)C(=O)N[C@@H](C)C(=O)N[C@@H](CCC(N)=O)C(=O)N[C@@H](CO)C(=O)N1CCC[C@H]1C(=O)NCC(=O)O)C(C)C
B3: Compound No. 126 (peptide)
peptide: [NMeY][Aib]EGTFISDYSI[Aib]LDR[Aib]AQ[Aib]K([AEEA-AEEA-γGlu-γGlu-C17 diacid])FVNWLLAQSPG-OH
modifications: N-terminus assumed
SMILES: CC[C@H](C)[C@H](NC(=O)[C@H](Cc1ccccc1)NC(=O)[C@@H](NC(=O)CNC(=O)[C@H](CCC(=O)O)NC(=O)C(C)(C)NC(=O)[C@H](Cc1ccc(O)cc1)NC)[C@@H](C)O)C(=O)N[C@@H](CO)C(=O)N[C@@H](CC(=O)O)C(=O)N[C@@H](Cc1ccc(O)cc1)C(=O)N[C@@H](CO)C(=O)N[C@H](C(=O)NC(C)(C)C(=O)N[C@@H](CC(C)C)C(=O)N[C@@H](CC(=O)O)C(=O)N[C@@H](CCCNC(=N)N)C(=O)NC(C)(C)C(=O)N[C@@H](C)C(=O)N[C@@H](CCC(N)=O)C(=O)NC(C)(C)C(=O)N[C@@H](CCCCNC(=O)COCCOCCNC(=O)COCCOCCNC(=O)CC[C@H](NC(=O)CC[C@H](NC(=O)CCCCCCCCCCCCCCCC(=O)O)C(=O)O)C(=O)O)C(=O)N[C@@H](Cc1ccccc1)C(=O)N[C@H](C(=O)N[C@@H](CC(N)=O)C(=O)N[C@@H](Cc1c[nH]c2ccccc12)C(=O)N[C@@H](CC(C)C)C(=O)N[C@@H](CC(C)C)C(=O)N[C@@H](C)C(=O)N[C@@H](CCC(N)=O)C(=O)N[C@@H](CO)C(=O)N1CCC[C@H]1C(=O)NCC(=O)O)C(C)C)[C@@H](C)CC
B4: Compound No. 127 (peptide)
peptide: [NMeY][Aib]EGTFISDYSI[Aib]LDR[Aib]AQ[Aib]K([AEEA-AEEA-γGlu-γGlu-C17 diacid])FVNWLLAQRG-OH
modifications: N-terminus assumed
SMILES: CC[C@H](C)[C@H](NC(=O)[C@H](Cc1ccccc1)NC(=O)[C@@H](NC(=O)CNC(=O)[C@H](CCC(=O)O)NC(=O)C(C)(C)NC(=O)[C@H](Cc1ccc(O)cc1)NC)[C@@H](C)O)C(=O)N[C@@H](CO)C(=O)N[C@@H](CC(=O)O)C(=O)N[C@@H](Cc1ccc(O)cc1)C(=O)N[C@@H](CO)C(=O)N[C@H](C(=O)NC(C)(C)C(=O)N[C@@H](CC(C)C)C(=O)N[C@@H](CC(=O)O)C(=O)N[C@@H](CCCNC(=N)N)C(=O)NC(C)(C)C(=O)N[C@@H](C)C(=O)N[C@@H](CCC(N)=O)C(=O)NC(C)(C)C(=O)N[C@@H](CCCCNC(=O)COCCOCCNC(=O)COCCOCCNC(=O)CC[C@H](NC(=O)CC[C@H](NC(=O)CCCCCCCCCCCCCCCC(=O)O)C(=O)O)C(=O)O)C(=O)N[C@@H](Cc1ccccc1)C(=O)N[C@H](C(=O)N[C@@H](CC(N)=O)C(=O)N[C@@H](Cc1c[nH]c2ccccc12)C(=O)N[C@@H](CC(C)C)C(=O)N[C@@H](CC(C)C)C(=O)N[C@@H](C)C(=O)N[C@@H](CCC(N)=O)C(=O)N[C@@H](CCCNC(=N)N)C(=O)NCC(=O)O)C(C)C)[C@@H](C)CC
B5: Compound No. 129 (peptide)
peptide: H-Y[Aib]EGTFISDYSI[Aib]LDKIAQQK([AEEA-AEEA-γGlu-γGlu-C17 diacid])FVEWLLAQRG-OH
SMILES: CC[C@H](C)[C@H](NC(=O)[C@H](CCCCN)NC(=O)[C@H](CC(=O)O)NC(=O)[C@H](CC(C)C)NC(=O)C(C)(C)NC(=O)[C@@H](NC(=O)[C@H](CO)NC(=O)[C@H](Cc1ccc(O)cc1)NC(=O)[C@H](CC(=O)O)NC(=O)[C@H](CO)NC(=O)[C@@H](NC(=O)[C@H](Cc1ccccc1)NC(=O)[C@@H](NC(=O)CNC(=O)[C@H](CCC(=O)O)NC(=O)C(C)(C)NC(=O)[C@@H](N)Cc1ccc(O)cc1)[C@@H](C)O)[C@@H](C)CC)[C@@H](C)CC)C(=O)N[C@@H](C)C(=O)N[C@@H](CCC(N)=O)C(=O)N[C@@H](CCC(N)=O)C(=O)N[C@@H](CCCCNC(=O)COCCOCCNC(=O)COCCOCCNC(=O)CC[C@H](NC(=O)CC[C@H](NC(=O)CCCCCCCCCCCCCCCC(=O)O)C(=O)O)C(=O)O)C(=O)N[C@@H](Cc1ccccc1)C(=O)N[C@H](C(=O)N[C@@H](CCC(=O)O)C(=O)N[C@@H](Cc1c[nH]c2ccccc12)C(=O)N[C@@H](CC(C)C)C(=O)N[C@@H](CC(C)C)C(=O)N[C@@H](C)C(=O)N[C@@H](CCC(N)=O)C(=O)N[C@@H](CCCNC(=N)N)C(=O)NCC(=O)O)C(C)C

Experiments:
[1] = target: T1, full-length human GIPR with an …; assay: cell-based or functional assay
[2] = target: full-length human GLP-1R with an N-terminal FLAG tag (human, UniProt P43220 24-463); assay: cell-based or functional assay

| Binder | Human GIPR cAMP EC50, HEK293T [1] | Human GLP1R cAMP EC50, HEK293T [2] |
| --- | --- | --- |
| [NMeY][Aib]EGTFISDYSIA[K1]DRA[E1]Q[Aib]K([AEEA-AEEA-γGlu-γGlu-C18 diacid])FVNWLLAQRG-OH (reading uncertain; also: 'K1' at 14 and 'E1' at 18, not explained) [Compound No. 123] | 0.0005 nM | 74.1 nM |
| B1 | 0.0003 nM | 123 nM |
| B2 | 0.0005 nM | 20 nM |
| B3 | 0.0004 nM | 30.9 nM |
| B4 | 0.0007 nM | 63.1 nM |
| YXEGTFISDYSIAXDRXAQXDFVNWLLAQSPG (N-terminus H; Aib at 2,17,20; Lys(G5-C18 diacid) at 14; C-terminal OH) [Compound No. 128] | 0.0009 nM | 7.24 nM |
| B5 | 0.0004 nM | 115 nM |
| [NMeY][Aib]EGTFISDYSIAK([γGlu-γGlu-γGlu-C17 diacid])DR[Aib]AQ[Aib]NFVNWLLAQSPSSGAPPPS-NH2 [Compound No. 12] | 0.0002 nM | 955 nM |

— patent publication US20230143604A1, “QW DOSING OF GIP RECEPTOR AGONIST PEPTIDE COMPOUNDS AND USES THEREOF” (TAKEDA PHARMACEUTICAL COMPANY LIMITED, priority 2020, published 2023)
